Laboratory results: the supplement of paper PMC12338614
± gives the uncertainty stated by the source.

B1: library; numbered along this chain (parent)
chain: MEVVDPQQLGMFTEGELMSVGMDTFIHRIDSTEVIYQPRRKRAKLIGKYLMGDLLGEGSYGKVKEVLDSETLCRRAVKILKKKKLRRIPNGEANVKKEIQLLRRLRHKNVIQLVDVLYNEEKQKMYMVMEYCVCGMQEMLDSVPEKRFPVCQAHGYFCQLIDGLEYLHSQGIVHKDIKPGNLLLTTGGTLKISDLGVAEALHPFAADDTCRTSQGSPAFQPPEIANGLDTFSGFKVDIWSAGVTLYNITTGLYPFEGDNIYKLFENIGKGSYAIPGDCGPPLSDLLKGMLEYEPAKRFSIRQIRQHSWFRKKHPPAEAPVPIPPSPDTKDRWRSMTVVPYLEDLHGADEDEDLFDIEDDIIYTQDFTVPGQVPEEEASHNGQRRGLPKAVCMNGTEAAQLSTKSRAEGRAPNPARKACSASSKIRRLSACKQQ

Variants of: B1
Assay: STK11 functional score (HeLa growth suppression), rescaled enrichment; synonymous median = 1, nonsense median = 0 (normalised score)
Settings: with HeLa; variant type: missense
Experimental: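 Deep mutational scan (TileSeq/POPCode codon randomisation) of full-length codon-optimised STK11 cDNA integrated at a Bxb1 landing pad (AAVS1) in HeLa cells. Restoring functional STK11 suppresses HeLa proliferation. Variant frequencies were measured by NGS before and after about two weeks of growth. The error-corrected enrichment log-ratio was rescaled so that synonymous median = 1 and nonsense median = 0, scores above 1 were compressed, and codon-level and three biological replicate scores were combined; error is the bootstrapped standard error. Scale: synonymous median = 1, nonsense median = 0; below 0.5 = damaging.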

With MEVVDPQQLGMFTEGELMSVGMDTFIHRIDSTEVIYQPRRKRAKLIGKYLMGDLLGEGSYGKVKEVLDSETLCRRAVKILKKKKLRRIPNGEANVKKEIQLLRRLRHKRVIQLVDVLYNEEKQKMYMVMEYCVCGMQEMLDSVPEKRFPVCQAHGYFCQLIDGLEYLHSQGIVHKDIKPGNLLLTTGGTLKISDLGVAEALHPFAADDTCRTSQGSPAFQPPEIANGLDTFSGFKVDIWSAGVTLYNITTGLYPFEGDNIYKLFENIGKGSYAIPGDCGPPLSDLLKGMLEYEPAKRFSIRQIRQHSWFRKKHPPAEAPVPIPPSPDTKDRWRSMTVVPYLEDLHGADEDEDLFDIEDDIIYTQDFTVPGQVPEEEASHNGQRRGLPKAVCMNGTEAAQLSTKSRAEGRAPNPARKACSASSKIRRLSACKQQ [N109R] as the variant, how does the STK11 functional score read?
The STK11 functional score was 0.707 ± 0.08.

How did the STK11 functional score turn out when MEVVDPQQLGMFTEGELMSVGMDTFIHRIDSTEVIYQPRRKRAKLIGKYLMGDLLGEGSYGKVKERLDSETLCRRAVKILKKKKLRRIPNGEANVKKEIQLLRRLRHKNVIQLVDVLYNEEKQKMYMVMEYCVCGMQEMLDSVPEKRFPVCQAHGYFCQLIDGLEYLHSQGIVHKDIKPGNLLLTTGGTLKISDLGVAEALHPFAADDTCRTSQGSPAFQPPEIANGLDTFSGFKVDIWSAGVTLYNITTGLYPFEGDNIYKLFENIGKGSYAIPGDCGPPLSDLLKGMLEYEPAKRFSIRQIRQHSWFRKKHPPAEAPVPIPPSPDTKDRWRSMTVVPYLEDLHGADEDEDLFDIEDDIIYTQDFTVPGQVPEEEASHNGQRRGLPKAVCMNGTEAAQLSTKSRAEGRAPNPARKACSASSKIRRLSACKQQ [V66R] was run?
Its STK11 functional score is -0.0455 ± 0.097.

MEVVDPQQLGMFTEGELMSVGMDTFIHRIDSTEVIYQPRRKRAKLIGKYLMGDLLGEGSYGKVKEVLDSETLCRRAVKILKKKKLRRIPNGEANVKKEIQLLRRLRHKNVIQLVDVLYNEEKQKMYMVMEYCVCGMQEMLDSVPEKRFPVCQAHGYFCQLIDGLEYLHSQGIVHKDIKPGNLHLTTGGTLKISDLGVAEALHPFAADDTCRTSQGSPAFQPPEIANGLDTFSGFKVDIWSAGVTLYNITTGLYPFEGDNIYKLFENIGKGSYAIPGDCGPPLSDLLKGMLEYEPAKRFSIRQIRQHSWFRKKHPPAEAPVPIPPSPDTKDRWRSMTVVPYLEDLHGADEDEDLFDIEDDIIYTQDFTVPGQVPEEEASHNGQRRGLPKAVCMNGTEAAQLSTKSRAEGRAPNPARKACSASSKIRRLSACKQQ [L183H] was tested. Which STK11 functional score did it give?
The STK11 functional score was 1.43 ± 0.24.

How did the STK11 functional score turn out when MEVVDPQQLGMFTEGELMSVGMDTFIHRIDSTEVIYQPRRKRAKLIGKYLMGDLLGEGSYGKVKEVLDSETLCRRAVKILKKKKLRRIPNGEANVKKEIQLLRRLRHKNVIQLVDVLYNEEKQKMYMVMEYCVCGMQEMLDSVPEKRFPVCQAHGYFCQLIDGLEYLHSQGIVHKDIKPGNLLLTTGGTLKISDLGVAEALHPFAADDTCRTSQGSPAFQPPEIANGLDTFSGFKVDIWSAGVTLYNITTGLYPFEGDNIYKLFENIGKGSYAIPGDCGPPLSDLLKGMLEYEPAKRFSIRQIRQHSWFRKKHPPAESPVPIPPSPDTKDRWRSMTVVPYLEDLHGADEDEDLFDIEDDIIYTQDFTVPGQVPEEEASHNGQRRGLPKAVCMNGTEAAQLSTKSRAEGRAPNPARKACSASSKIRRLSACKQQ [A318S] was run?
Its STK11 functional score is 1.33 ± 0.28.

With MEVVDPQQLGMFTEGELMSVGMDTFIHRIDSTEVIYQPRRKRAKLIGKYLMGDLLGEGSYGKVKEVLDSETLCVRAVKILKKKKLRRIPNGEANVKKEIQLLRRLRHKNVIQLVDVLYNEEKQKMYMVMEYCVCGMQEMLDSVPEKRFPVCQAHGYFCQLIDGLEYLHSQGIVHKDIKPGNLLLTTGGTLKISDLGVAEALHPFAADDTCRTSQGSPAFQPPEIANGLDTFSGFKVDIWSAGVTLYNITTGLYPFEGDNIYKLFENIGKGSYAIPGDCGPPLSDLLKGMLEYEPAKRFSIRQIRQHSWFRKKHPPAEAPVPIPPSPDTKDRWRSMTVVPYLEDLHGADEDEDLFDIEDDIIYTQDFTVPGQVPEEEASHNGQRRGLPKAVCMNGTEAAQLSTKSRAEGRAPNPARKACSASSKIRRLSACKQQ [R74V] as the variant, how does the STK11 functional score read?
The STK11 functional score was 0.653 ± 0.33.

Which STK11 functional score does the source give for MEVVDPQQLGMFTEGELMSVGMDTFIHRIDSTEVIYQPRRKRAKLIGKYLMGDLLGEGSYGKVKEVLDSETLCRRAVKILKKKKLRRIPNGEANVKKEIQLLRRLRHKNVIQLVDVLYNEEKQKMYMVMEYCVCGMQEMLDSVPEKRFPVCQAHGYFCQLIDGLEYLHSQGIVHKDIKPGNLLLTTGGTLKISDLGVAEALHPFAADDTCRTSQGSPAFQPPEIANGLDTFSGFKVDIWSAGVTLYNITTGLYPFEGDNIYKLFENIGKGSYAIPGDCGPPLSDLLKGMLEYEPAKRFSIRQIRQHSWFRKKHPPAEAPVPIPPSPDTKDRWRSMTVVPYLEDLHGADEDEDLFDIEDDIIYTQDFTVPGQVPEEEASHNGQRRGLPKAVCMNGTEAAQLSTKSRAEGRAPNPAHKACSASSKIRRLSACKQQ [R415H] here?
The STK11 functional score was 1.6 ± 0.28.

Which STK11 functional score does the source give for MEVVDPQQLGMFTEGELMSVGMDTFIHRIDSTEVIYQPRRKRAKLIGKYLMGDLLGEGSYGKVKEVLDSETLCRRAVKILKKKKLRRIPNGEANVKKEIQLLRRLRHKNVIQLVDVLYNEEKQKMYMVMEYCVCGMQEMLDSVPEKRFPVCQAHGYFCQLIDGLEYLHSWGIVHKDIKPGNLLLTTGGTLKISDLGVAEALHPFAADDTCRTSQGSPAFQPPEIANGLDTFSGFKVDIWSAGVTLYNITTGLYPFEGDNIYKLFENIGKGSYAIPGDCGPPLSDLLKGMLEYEPAKRFSIRQIRQHSWFRKKHPPAEAPVPIPPSPDTKDRWRSMTVVPYLEDLHGADEDEDLFDIEDDIIYTQDFTVPGQVPEEEASHNGQRRGLPKAVCMNGTEAAQLSTKSRAEGRAPNPARKACSASSKIRRLSACKQQ [Q170W] here?
Its STK11 functional score is 1.17 ± 0.12.
